Test results from paper PMC12409425, “Two distinct protein-protein interfaces drive cooperative binding of the herpes simplex virus protein ICP8 to ssDNA, filament formation and annealing essential for viral replication” (The Journal of Biological Chemistry, 2025).
Where a chain is given by its changes, count along the chain named. Names and notes keep the numbering of the source.

Key:
ICP8 WT = ICP8 WT (Herpes simplex virus type 1 (KOS), UniProt P17470 1-1196); assay: EMSA; cooperative supershifted band present; EMSA: 20 mM HEPES pH 7.5, 150 mM KCl, 2 mM EDTA, 1 mM TCEP, 6% Ficoll, on ice 30 min, gel at 4 °C; thermal shift: 20 mM Na phosphate (SI: HEPES) pH 7.6, 100 mM; conditions: protein: recombinant; tags: none stated; chain copies: 4; label: Cy5; single strand
[1] = molecular target: T1, ICP8Δ60 (HSV-1 ICP8 lacking the 60-aa C-terminal tail) (herpes simplex virus type 1 (HSV-1), …, UniProt P17470 1-1136, in the MST only: labelled on amines with the red dye NT-647-NHS (RED-NHS Monolith kit); unlabelled in the thermal shift assays); assay: label-free thermal shift (nanoDSF, Tycho NT.6); as a1 (1:10 M ratio), with 1.2 M excess of a 19-mer ssDNA added to the preformed binary complex; ΔTi counted against apo ICP8Δ60 without ssDNA (ssDNA alone gives 1.1 °C); conditions: both partners purified
T1 construct: the tail is printed as residues 1136-1196; source: Sf9 insect cells infected with recombinant baculovirus (pFastBac1-ICP8Δ60), purified (SP-Sepharose cation exchange)
T1 sequence: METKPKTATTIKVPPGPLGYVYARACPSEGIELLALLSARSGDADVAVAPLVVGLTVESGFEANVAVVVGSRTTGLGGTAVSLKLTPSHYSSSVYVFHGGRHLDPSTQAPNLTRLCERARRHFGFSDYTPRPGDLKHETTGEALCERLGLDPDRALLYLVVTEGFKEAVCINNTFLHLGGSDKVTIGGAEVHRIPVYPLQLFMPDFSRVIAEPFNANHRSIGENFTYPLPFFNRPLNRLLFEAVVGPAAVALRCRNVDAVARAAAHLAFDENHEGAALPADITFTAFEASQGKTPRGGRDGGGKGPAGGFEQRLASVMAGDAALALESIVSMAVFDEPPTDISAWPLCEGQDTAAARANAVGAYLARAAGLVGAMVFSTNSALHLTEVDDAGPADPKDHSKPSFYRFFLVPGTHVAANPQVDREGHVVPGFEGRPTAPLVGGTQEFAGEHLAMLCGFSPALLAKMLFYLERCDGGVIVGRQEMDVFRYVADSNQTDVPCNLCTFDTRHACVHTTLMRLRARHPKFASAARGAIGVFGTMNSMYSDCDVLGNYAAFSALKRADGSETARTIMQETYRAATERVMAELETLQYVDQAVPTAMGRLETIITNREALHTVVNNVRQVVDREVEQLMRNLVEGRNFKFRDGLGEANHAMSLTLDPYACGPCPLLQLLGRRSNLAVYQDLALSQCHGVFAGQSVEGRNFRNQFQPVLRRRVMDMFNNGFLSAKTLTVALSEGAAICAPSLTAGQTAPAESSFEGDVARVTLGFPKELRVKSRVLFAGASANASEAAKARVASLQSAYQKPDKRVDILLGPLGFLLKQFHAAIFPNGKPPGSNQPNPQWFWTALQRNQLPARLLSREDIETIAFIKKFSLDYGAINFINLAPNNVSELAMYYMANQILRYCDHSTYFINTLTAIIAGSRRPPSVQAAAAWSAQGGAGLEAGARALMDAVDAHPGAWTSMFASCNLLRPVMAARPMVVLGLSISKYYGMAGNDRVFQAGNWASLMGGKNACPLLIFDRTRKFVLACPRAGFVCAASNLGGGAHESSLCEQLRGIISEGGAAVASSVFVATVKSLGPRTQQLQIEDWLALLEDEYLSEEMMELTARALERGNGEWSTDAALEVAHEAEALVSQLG

[2] = molecular target: T1, ICP8Δ60 (HSV-1 ICP8 lacking the 60-aa …); assay: label-free thermal shift (nanoDSF, Tycho NT.6); 5 μM ICP8Δ60 with a molar excess of CTD fragment (1:10 M ratio), no ssDNA; shift of the inflection temperature Ti of ICP8Δ60; 20 mM Na phosphate pH 7.6, 100 mM NaCl, 100 μM EDTA, 1 mM TCEP, 10% glycerol, 5 mM MgCl2; heated at 30 °C/min; conditions: both partners purified
[3] = molecular target: T1, ICP8Δ60 (HSV-1 ICP8 lacking the 60-aa …); assay: MST; ICP8Δ60 labelled with NT-647-NHS at 20 nM or 50 nM, unlabelled CTD fragment titrated from low nanomolar to high micromolar; 20 mM sodium phosphate pH 7.5, 100 mM NaCl, 0.1 mM EDTA, 2 mM DTT, 5 mM MgCl2, 0.05% Tween 20; 30 min at RT; one site binding model; conditions: both partners purified
ICP8Δ60 = ICP8Δ60 (Herpes simplex virus type 1 (KOS), UniProt P17470 1-1136); assay: MST; 20 nM DNA; EMSA: 20 mM HEPES pH 7.5, 150 mM KCl, 2 mM EDTA, 1 mM TCEP, 6% Ficoll, on ice 30 min, gel at 4 °C; thermal shift: 20 mM Na phosphate (SI: HEPES) pH 7.6, 100 mM; conditions: protein: recombinant; tags: none stated; label: 5' Cy5; single strand
[4] = molecular target: T1, ICP8Δ60 (HSV-1 ICP8 lacking the 60-aa …); assay: label-free thermal shift (nanoDSF), dose series refitted with MoltenProt; 5 μM ICP8Δ60 preincubated with 10 to 100 μM CTD fragment (1:2 to 1:20 M ratio) for 3 h at room temperature; two-state reversible unfolding model; conditions: both partners purified
[5] = molecular target: the molecule itself; assay: negative-stain electron microscopy of filament formation; 0.5 μM protein overnight at 4 °C in 20 mM HEPES-KOH pH 7.5, 100 mM NaCl, 10% glycerol, 1 mM DTT, 0.1 mM EDTA, 5 mM MgCl2; uranyl acetate stain; no DNA

B1: Cy5-50-mer dT (ssDNA)
DNA: TTTTTTTTTTTTTTTTTTTTTTTTTTTTTTTTTTTTTTTTTTTTTTTTTT
- binding result (ICP8 WT): binds

B2: ICP8-CTD Δ60 (domain or fragment)
chain: AASNLGGGAHESSLCEQLRGIISEGGAAVASSVFVATVKSLGPRTQQLQIEDWLALLEDEYLSEEMMELTARALERGNGEWSTDAALEVAHEAEALVSQLG
notes: ICP8 (UL29) of HSV-1, C-terminal domain (begins at 1036) with the last 60 residues deleted; source: E. coli BL21 (pET28a-His-ICP8-CTDΔ60), purified (Talon cobalt beads, Superose 12 gel filtration)
- ΔTi of ICP8Δ60 (Ti complex - Ti apo), + ssDNA [1]: 2 °C
- ΔTi of ICP8Δ60 (Ti complex - Ti apo), - ssDNA [2]: 0.7 °C
- Kd [3]: 53500 nM

B3: Cy5-25-mer poly(dT) (ssDNA)
DNA: TTTTTTTTTTTTTTTTTTTTTTTTT
- Kd (ICP8Δ60): 70 nM

B4: ICP8-CTD WT (His-tagged entire C-terminal domain of ICP8, residues 1036-1196) (domain or fragment)
chain: AASNLGGGAHESSLCEQLRGIISEGGAAVASSVFVATVKSLGPRTQQLQIEDWLALLEDEYLSEEMMELTARALERGNGEWSTDAALEVAHEAEALVSQLGNAGEVFNFGDFGCEDDNATPFGGPGAPGPAFAGRKRAFHGDDPFGEGPPDKKGDLTLDML
notes: ICP8 (UL29) of HSV-1, entire C-terminal domain with the helical bundle and the intact 60-aa disordered tail, residues 1036-1196; The methods give no limits for the pET28a construct and give aa 1049-1135 for the Flag-tagged CTD of the cell experiments; also called WT ICP8-CTD; WT CTD; source: E. coli BL21 (pET28a-His-ICP8-CTD, codon optimised), purified (Talon cobalt beads, Superose 12 gel …)
- Ti of ICP8Δ60 at 1:2 ratio (ICP8Δ60 alone 51.5) [4]: 52.1 ± 0.1 °C
- Ti of ICP8Δ60 at 1:5 ratio (ICP8Δ60 alone 51.5) [4]: 52.7 ± 0.1 °C
- Ti of ICP8Δ60 at 1:10 ratio (ICP8Δ60 alone 51.5) [4]: 53.3 ± 0.1 °C
- Ti of ICP8Δ60 at 1:20 ratio (ICP8Δ60 alone 51.5) [4]: 53.9 ± 0.1 °C
- ΔTi of ICP8Δ60 (Ti complex - Ti apo), + ssDNA [1]: 2.9 °C
- ΔTi of ICP8Δ60 (Ti complex - Ti apo), - ssDNA [2]: 2.1 °C
- Kd [3]: 147 nM

B5: ICP8-CTD D1087A (domain or fragment)
chain: B4 chain with D52A
notes: ICP8 (UL29) of HSV-1, C-terminal domain, residues 1036-1196, with D1087A; source: E. coli BL21 (pET28a-His-ICP8-CTD mutant), purified (Talon cobalt beads, Superose 12 gel filtration)
- ΔTi of ICP8Δ60 (Ti complex - Ti apo), + ssDNA [1]: 2.4 °C
- ΔTi of ICP8Δ60 (Ti complex - Ti apo), - ssDNA [2]: 1 °C
- Kd [3]: 1550 nM

B6: ICP8-CTD FNF→AAA (domain or fragment)
chain: B4 chain with F107A, N108A, F109A
notes: ICP8 (UL29) of HSV-1, C-terminal domain, residues 1036-1196, with the triple alanine substitution of F1142, N1143 and F1144; the text has 1142-1144; also called FNF→AAA CTD; source: E. coli BL21 (pET28a-His-ICP8-CTD mutant), purified (Talon cobalt beads, Superose 12 gel filtration)
- ΔTi of ICP8Δ60 (Ti complex - Ti apo), + ssDNA [1]: 1.9 °C
- ΔTi of ICP8Δ60 (Ti complex - Ti apo), - ssDNA [2]: 0.6 °C
- Kd [3]: 21100 nM

B7: ICP8 WT, full length (natural protein)
chain: METKPKTATTIKVPPGPLGYVYARACPSEGIELLALLSARSGDADVAVAPLVVGLTVESGFEANVAVVVGSRTTGLGGTAVSLKLTPSHYSSSVYVFHGGRHLDPSTQAPNLTRLCERARRHFGFSDYTPRPGDLKHETTGEALCERLGLDPDRALLYLVVTEGFKEAVCINNTFLHLGGSDKVTIGGAEVHRIPVYPLQLFMPDFSRVIAEPFNANHRSIGENFTYPLPFFNRPLNRLLFEAVVGPAAVALRCRNVDAVARAAAHLAFDENHEGAALPADITFTAFEASQGKTPRGGRDGGGKGPAGGFEQRLASVMAGDAALALESIVSMAVFDEPPTDISAWPLCEGQDTAAARANAVGAYLARAAGLVGAMVFSTNSALHLTEVDDAGPADPKDHSKPSFYRFFLVPGTHVAANPQVDREGHVVPGFEGRPTAPLVGGTQEFAGEHLAMLCGFSPALLAKMLFYLERCDGGVIVGRQEMDVFRYVADSNQTDVPCNLCTFDTRHACVHTTLMRLRARHPKFASAARGAIGVFGTMNSMYSDCDVLGNYAAFSALKRADGSETARTIMQETYRAATERVMAELETLQYVDQAVPTAMGRLETIITNREALHTVVNNVRQVVDREVEQLMRNLVEGRNFKFRDGLGEANHAMSLTLDPYACGPCPLLQLLGRRSNLAVYQDLALSQCHGVFAGQSVEGRNFRNQFQPVLRRRVMDMFNNGFLSAKTLTVALSEGAAICAPSLTAGQTAPAESSFEGDVARVTLGFPKELRVKSRVLFAGASANASEAAKARVASLQSAYQKPDKRVDILLGPLGFLLKQFHAAIFPNGKPPGSNQPNPQWFWTALQRNQLPARLLSREDIETIAFIKKFSLDYGAINFINLAPNNVSELAMYYMANQILRYCDHSTYFINTLTAIIAGSRRPPSVQAAAAWSAQGGAGLEAGARALMDAVDAHPGAWTSMFASCNLLRPVMAARPMVVLGLSISKYYGMAGNDRVFQAGNWASLMGGKNACPLLIFDRTRKFVLACPRAGFVCAASNLGGGAHESSLCEQLRGIISEGGAAVASSVFVATVKSLGPRTQQLQIEDWLALLEDEYLSEEMMELTARALERGNGEWSTDAALEVAHEAEALVSQLGNAGEVFNFGDFGCEDDNATPFGGPGAPGPAFAGRKRAFHGDDPFGEGPPDKKGDLTLDML
notes: also called WT ICP8; full-length ICP8
- binding result [5]: binds
